From the supplement of paper PMC7877785
± gives the uncertainty stated by the source.

Test: self-splicing fitness, log relative to wild type (ln ratio); higher = more splicing; Tetrahymena group I intron in knt gene, E. coli kanamycin selection, DiMSum; sequences stand for … in CUCUCU…GGAGGGAAAAGUUAUCAGGCAUGCACCUGGUAGCUAGUCUUUAAACCAAUAGAUUGCAUCGGUUUAAAAGGCAAGACCGUCAAAUUGCGGGAAAGGGGUCAACAGCCGUUCAGUACCAAGUCUCAGGGGAAACUUUGAGAUGGCCUUGCAAAGGGUAUGGUAAUAAGCUGACGGACAUGGUCCUAACCACGCAGCCAAGUCCUAAGUCAACAGAUCUUCUGUUGAUAUGGAUGCAGUUCACAGACUAAAUGUCGGUCGGGGAAGAUGUAUUCUUCUCAUAAGAUAUAGUCGGACCUCUCCUUAAUGGGAGCUAGCGGAUGAAGUGAUGCAACACUGGAGCCGCUGGGAACUAAUUUGUAUGCGAAAGUAUAUUGAUUAGUUUUGGAGUACUCGUGGUCG
Procedure, shortened: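 The eight P1ex-region nucleotides of an intron in the knt kanamycin-resistance gene on pET-22b(+) were all randomised and the library put into E. coli BL21(DE3). Six replicate transformations were grown overnight at 37°C or 30°C on LB agar with or without 25 μg/mL kanamycin, together with 100 μg/mL carbenicillin, 50 μM IPTG and 0.2% rhamnose. Colonies were pooled and amplicon-sequenced on an Illumina HiSeq 2500. Fitness from DiMSum is the error-weighted combination of wild-type-normalised replicate fold changes, kanamycin over none.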

| Sequence | self-splicing fitness (ln) (30 °C) | self-splicing fitness (ln) (37 °C) |
| --- | --- | --- |
| CGGCAGCAAUAUUACGUACC | -2.07 ± 0.19 | -1.61 ± 0.25 |
| CGGCAGCAAUAUUACGUCAG | -2.04 ± 0.099 | -0.000984 ± 0.1 |
| CGGCAGCAAUAUUACGUCUG | -2.32 ± 0.21 | -1.86 ± 0.19 |
| CGGCAGCAAUAUUACGUUCC | -2.59 ± 0.14 | -1.77 ± 0.21 |
| CGGGAGCAAUAUUACGAACA |  | -1.37 ± 0.22 |
| CGGGAGCAAUAUUACGAAUG | -3.6 ± 0.21 | -1.1 ± 0.15 |
| CGGGAGCAAUAUUACGACUG | -3.19 ± 0.22 | -1.55 ± 0.18 |
| CGGGAGCAAUAUUACGAUGC | -3.44 ± 0.2 | -2.91 ± 0.4 |
| CGGGAGCAAUAUUACGAUUA |  | -3.69 ± 0.42 |
| CGGGAGCAAUAUUACGCCUA | -2.84 ± 0.27 | -2.14 ± 0.19 |
| CGGGAGCAAUAUUACGCUUC |  | -2.21 ± 0.31 |
| CGGGAGCAAUAUUACGCUUG |  | -2.34 ± 0.31 |
| CGGGAGCAAUAUUACGUCUC | -2.33 ± 0.24 |  |
| CGGGAGCAAUAUUACGUUUU | -2.19 ± 0.18 | -1.53 ± 0.27 |
| CGGUAGCAAUAUUACGAACA | -0.899 ± 0.16 | -0.395 ± 0.2 |
| CGGUAGCAAUAUUACGAAUA | -2.04 ± 0.35 | -1.67 ± 0.3 |
| CGGUAGCAAUAUUACGACAG | -0.475 ± 0.15 | 0.021 ± 0.16 |
| CGGUAGCAAUAUUACGACGU | -1.76 ± 0.13 | -1.08 ± 0.17 |
| CGGUAGCAAUAUUACGAGCA | -3.2 ± 0.31 | -0.781 ± 0.17 |
| CGGUAGCAAUAUUACGAGCU | -2.4 ± 0.15 | -1.89 ± 0.2 |
| CGGUAGCAAUAUUACGAGGC |  | -0.808 ± 0.29 |

| Sequence | self-splicing fitness (ln) (30 °C) | self-splicing fitness (ln) (37 °C) |
| --- | --- | --- |
| CGGUAGCAAUAUUACGAGUG | -0.671 ± 0.098 | 0.142 ± 0.17 |
| CGGUAGCAAUAUUACGAUCG | -2.68 ± 0.22 | -2.27 ± 0.32 |
| CGGUAGCAAUAUUACGAUUG | -0.538 ± 0.073 | -0.0537 ± 0.095 |
| CGGUAGCAAUAUUACGCAAC |  | -1.42 ± 0.35 |
| CGGUAGCAAUAUUACGCACU | -1.64 ± 0.26 | 0.00723 ± 0.27 |
| CGGUAGCAAUAUUACGCAUG | -0.808 ± 0.069 | 0.339 ± 0.08 |
| CGGUAGCAAUAUUACGCUGA | -2.23 ± 0.21 | -0.951 ± 0.2 |
| CGGUAGCAAUAUUACGGACU | -1.25 ± 0.16 | -0.871 ± 0.2 |
| CGGUAGCAAUAUUACGGCAG | -0.164 ± 0.13 | 0.767 ± 0.16 |
| CGGUAGCAAUAUUACGGCGU | -2.03 ± 0.14 | -0.594 ± 0.13 |
| CGGUAGCAAUAUUACGGGGG | -3.21 ± 0.22 | -3.01 ± 0.43 |
| CGGUAGCAAUAUUACGGGUA | -2.65 ± 0.21 | -3.01 ± 0.28 |
| CGGUAGCAAUAUUACGGUAU | -3.77 ± 0.22 | -2.31 ± 0.22 |
| CGGUAGCAAUAUUACGGUUG | -0.837 ± 0.069 | -0.0229 ± 0.093 |
| CGGUAGCAAUAUUACGUAAG | 0.00223 ± 0.095 | 0.329 ± 0.11 |
| CGGUAGCAAUAUUACGUACC | -3.27 ± 0.4 | -1.89 ± 0.3 |
| CGGUAGCAAUAUUACGUAGA | -1.73 ± 0.053 | -1.89 ± 0.082 |
| CGGUAGCAAUAUUACGUAGC | -3.25 ± 0.2 | -3.13 ± 0.27 |
| CGGUAGCAAUAUUACGUAGU | -2.59 ± 0.13 | -1.34 ± 0.16 |
| CGGUAGCAAUAUUACGUCGU | -3.85 ± 0.22 | -2.02 ± 0.24 |
